Consider two molecules from patent US20220372114A1 (CURIA IP, published 2022).

Assay [1] has as its target SARS-CoV-1 spike on pseudovirus (SARS-CoV-1, UniProt P59594 14-1255). The assay is described as follows: cell-based or functional assay.
Assay [2] addresses T1, SARS-CoV-1 spike trimer (SARS-CoV-1, UniProt P59594 14-1195). The assay is described as follows: ELISA, plate-coated SARS-CoV-1 spike, purified mouse antibody. On the technique in general: An ELISA detects its analyte on a solid surface through an enzyme-linked reagent.
The target in assay [3] is T1, SARS-CoV-1 spike trimer. The assay is described as follows: ELISA, plate-coated SARS-CoV-1 spike.

Values joined by “and” are separate entries in the source; they are usually repeats but may differ in a detail not shown here. Equal entries are not always repeated.

B1: 10-B13-A (human Fc IgG2 chimera) (antibody, V domains shown)
VH: QVQLQQSGAELVKPGASVKISCKASGYAFSNYWMNWVKQRPGKGLEWIGQIYPGDGDTNYNGNFKGKATLTADKSSSTAYIQLSSLTSEDSAVYFCGRGFIATVVEVFDHWGLGTTLTVSS
VL: DIQMTQTTSSLSASLGDRVTISCRASQDISNYLNWYQQKPDGTVKLLIYYTSRLQSGVPSRFSGSGTGTDYSLTISNLEQEDIATYFCQQGNTLPWTFGGGTKLEIK
On to B1, for which, in assay [1], the “IC50, SARS-CoV-1 pseudovirus ACE2+TMPRSS2+ target cell infection assay” value is ~33 ug/ml and ~220 nM.

B2: 10-B13-A (antibody, V domains shown)
VH: QVQLQQSGAELVKPGASVKISCKASGYAFSNYWMNWVKQRPGKGLEWIGQIYPGDGDTNYNGNFKGKATLTADKSSSTAYIQLSSLTSEDSAVYFCGRGFIATVVEVFDHWGLGTTLTVSS
VL: DIQMTQTTSSLSASLGDRVTISCRASQDISNYLNWYQQKPDGTVKLLIYYTSRLQSGVPSRFSGSGTGTDYSLTISNLEQEDIATYFCQQGNTLPWTFGGGTKLEIK
Take B2: the figures for the half-maximal effective concentration (EC50) with SARS-CoV-1 spike trimer [2] and with SARS-CoV-1 spike trimer [3] were 0.96 nM and approximately 1 nM, respectively.
